Experiment [1] deals with T1, peptide #39 of the human ADAMTS4 peptide array (YCEGRRTRFRSC) (human).
T1 construct: Immobilized on a peptide array
T1 peptide: YCEGRRTRFRSC
Nature of the experiment: peptide array, HRP-labeled antibody. An excerpt:
(§1) To be specific, as shown in the following Table, a peptide array consisting of peptides having the residue number of 12 amino acid residues and an offset of 3 amino acid residues was produced relative to a sequence covering the thrombospondin domain of human ADAMTS4.

The target in experiment [2] is T2, peptide #38 of the human ADAMTS4 peptide array (KYCEGRRTRFRS) (human).
T2 construct: Immobilized on a peptide array
T2 peptide: KYCEGRRTRFRS
Briefly: peptide array, HRP-labeled antibody.
Text: as §1

The target in experiment [3] is T3, peptide #37 of the human ADAMTS4 peptide array (GKYCEGRRTRFR) (human).
T3 construct: Immobilized on a peptide array
T3 peptide: GKYCEGRRTRFR
Nature of the experiment: peptide array, HRP-labeled antibody.
Text: as §1

Experiment [4] has as its target T4, peptide #36 of the human ADAMTS4 peptide array (GGKYCEGRRTRF) (human).
T4 construct: Immobilized on a peptide array
T4 peptide: GGKYCEGRRTRF
Nature of the experiment: peptide array, HRP-labeled antibody.
Text: as §1

Experiment [5] has as its target T5, recombinant human ADAMTS4 (residues Phe213-Cys685, C-terminal Strep-tag II) (human, UniProt O75173 213-685).
T5 construct: Made in HEK293T cells; metalloproteinase, disintegrin, thrombospondin and cysteine-rich domains; also called recombinant ADAMTS4; not shown: Strep-tag II at the C-terminal
T5 sequence: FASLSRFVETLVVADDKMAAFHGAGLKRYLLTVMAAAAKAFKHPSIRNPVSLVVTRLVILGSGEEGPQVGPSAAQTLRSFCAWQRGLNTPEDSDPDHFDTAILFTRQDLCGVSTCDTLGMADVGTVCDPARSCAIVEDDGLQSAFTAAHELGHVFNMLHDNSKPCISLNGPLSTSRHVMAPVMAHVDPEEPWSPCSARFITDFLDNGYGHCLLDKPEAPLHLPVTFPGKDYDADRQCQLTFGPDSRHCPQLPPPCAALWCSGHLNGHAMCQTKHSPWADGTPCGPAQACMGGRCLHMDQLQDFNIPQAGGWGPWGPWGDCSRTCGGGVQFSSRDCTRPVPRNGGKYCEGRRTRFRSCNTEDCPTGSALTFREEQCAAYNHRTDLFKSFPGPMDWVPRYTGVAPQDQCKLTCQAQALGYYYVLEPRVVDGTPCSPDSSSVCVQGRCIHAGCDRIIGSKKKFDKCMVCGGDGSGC
Briefly: SPR (BIAcore 3000), ADAMTS amine-coupled on CM5 chip, IgG1 injected. The procedure:
(§2) Surface plasma resonance interaction (BIAcore) analysis Recombinant ADAMTS species were covalently immobilized via amine coupling on CM5 sensor chip flow chambers (GE Healthcare Life Sciences, Buckinghamshire, UK). […] The KD (the affinity) was calculated from the determined Kₐ and Kd values.
Background: Surface plasmon resonance follows binding to a sensor surface in real time, without labels.

The target of experiment [6] is T6, Recombinant ADAMTS5 protein containing the metalloproteinase, disintegrin and thrombospondin domains … (human, UniProt Q9UNA0 262-622).
T6 construct: Bought from R&D Systems
T6 sequence: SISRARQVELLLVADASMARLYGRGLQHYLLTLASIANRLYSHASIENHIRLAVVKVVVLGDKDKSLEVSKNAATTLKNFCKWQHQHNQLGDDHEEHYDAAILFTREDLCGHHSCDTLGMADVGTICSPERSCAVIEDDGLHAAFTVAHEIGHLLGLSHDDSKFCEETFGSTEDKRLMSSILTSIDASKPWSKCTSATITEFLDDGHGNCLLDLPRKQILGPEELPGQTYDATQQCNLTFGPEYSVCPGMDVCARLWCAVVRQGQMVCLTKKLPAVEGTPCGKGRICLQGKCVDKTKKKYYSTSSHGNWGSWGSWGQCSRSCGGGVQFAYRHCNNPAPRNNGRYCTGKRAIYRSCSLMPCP
The experiment is described as above. The procedure: as §2

The text below walks through data of patent publication US20160304622A1 (GENEFRONTIER, published 2016).

B1: human anti-ADAMTS antibody (IgG1; clone 237-53) (antibody, V domains shown)
VH: QVQLVQSGAEVKKPGSSVKVSCKASGGTFSSFAISWVRQAPGQGLEWMGGIFPIFGQANYAQKFQGRVTITADESTSTAYMELSSLRSEDTAVYYCARFSDWWEWQMDYWGQGTLVTVSS
VL: DIVMTQSPDSLAVSLGERATINCRSSQSILYSSNNNYLAWYQQKPGQPPKLLIHTASARESGVPDRFSGSGSGTDFTLTISSLQAEDVAVYYCQQYYSVSITFGQGTKVEIKR
notes: HRP-labeled in the peptide array
For the molecule B1, the binding result in experiment [1], in experiment [2], in experiment [3] and in experiment [4] was “binds” throughout. For the same molecule, the figures for the equilibrium dissociation constant (Kd) in experiment [5] and in experiment [6] were 11.7 nM and 1.46 nM, respectively.
